Target: Rad4/Cut5 (UniProt P32372)
Assay: anti-HA IP of Rad9, anti-Rad4 blot
Conditions: reference: wild-type Rad9; sites T412

Substance: Rad9 (from UniProt P26306) Rad9-T412A
- binding against the reference: lost

Source: paper PMC3963969
